{
  "source": "patent US20070286806A1",
  "about": "“Methods and Compositions for Modulating a Steroid Receptor” (Mount Sinai Hospital, priority 2004, published 2007)",
  "molecular_target": "T1, androgen receptor (Homo sapiens, UniProt P10275)",
  "T1 construct": "expressed in transfected cells; host or cells: PC-3(AR)2 prostate cancer cells",
  "T1 sequence (P10275 1-920)": "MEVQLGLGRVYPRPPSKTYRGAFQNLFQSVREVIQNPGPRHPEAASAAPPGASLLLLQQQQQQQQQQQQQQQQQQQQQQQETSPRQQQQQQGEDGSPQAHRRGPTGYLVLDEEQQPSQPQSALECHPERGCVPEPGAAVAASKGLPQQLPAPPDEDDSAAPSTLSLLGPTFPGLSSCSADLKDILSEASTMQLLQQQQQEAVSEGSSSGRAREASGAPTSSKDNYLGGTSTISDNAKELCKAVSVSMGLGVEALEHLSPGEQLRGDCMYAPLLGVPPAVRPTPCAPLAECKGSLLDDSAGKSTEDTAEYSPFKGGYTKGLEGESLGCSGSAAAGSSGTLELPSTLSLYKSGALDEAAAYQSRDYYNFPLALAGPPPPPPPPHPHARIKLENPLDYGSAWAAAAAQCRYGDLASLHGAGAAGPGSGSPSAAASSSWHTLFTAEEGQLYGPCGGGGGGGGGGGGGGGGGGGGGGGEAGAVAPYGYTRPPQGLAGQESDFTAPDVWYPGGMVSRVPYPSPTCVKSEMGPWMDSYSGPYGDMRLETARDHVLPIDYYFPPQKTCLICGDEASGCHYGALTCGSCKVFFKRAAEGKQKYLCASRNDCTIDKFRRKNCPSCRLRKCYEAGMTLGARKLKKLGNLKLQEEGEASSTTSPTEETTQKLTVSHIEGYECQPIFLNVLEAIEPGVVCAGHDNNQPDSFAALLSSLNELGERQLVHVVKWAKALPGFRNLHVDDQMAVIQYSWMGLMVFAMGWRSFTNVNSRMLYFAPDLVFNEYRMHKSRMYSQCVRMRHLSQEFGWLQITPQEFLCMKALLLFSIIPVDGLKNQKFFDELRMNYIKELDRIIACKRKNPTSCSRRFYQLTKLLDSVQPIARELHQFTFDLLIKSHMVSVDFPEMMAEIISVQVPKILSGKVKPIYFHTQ",
  "experiment": "DHT-induced AR transactivation in PC-3(AR)2 cells, MMTV-Luc reporter",
  "assay_type": "cell-based",
  "experimental": "(§1) Prostate cancer cells (stable transfected with androgen receptor) were transiently transfected with PSF-A expression vector together with a MMTV-Luc reporter vector. Cells were treated with either vehicle or 1 nM DHT for at least 24 hours. Luciferase activities were measured and normalized by β-galactosidase acitvity. Data shown in FIG. 10 are the mean of three separate experiments performed in triplicate ±S.E. Note: the empty vector pcDNA3 was added to the DNA mixture to ensure that the amounts of CMV promoter in all the transfection assays are equal.\nas §1, with “(stably” for “(stable”, “PSF-F” for “PSF-A”, “11” for “10”\nPC-3(AR)2 cells are PC-3 cells rendered androgen sensitive by stable transfection of a human androgen receptor cDNA. PC-3(AR)2 cells were transiently transfected with a constant AR expression vector together without or with increasing doses of PSF-A vectors. […]",
  "data": [
    {"molecule": "polypyrimidine tract binding protein-associated splicing factor (protein, expressed from transfected His-PSF vector or in vitro translated) MSRDRFRSRGGGGGGFHRRGGGGGRGGLHDFRSPPPGMGLNQNRGPMGPGPGQSGPKPPIPPPPPHQQQQQPPPQQPPPQQPPPHQPPPHPQPHQQQQPPPPPQDSSKPVVAQGPGPAPGVGSAPPASSSAPPATPPTSGAPPGSGPGPTPTPPPAVTSAPPGAPPPTPPSSGVPTTPPQAGGPPPPPAAVPGPGPGPKQGPGPGGPKGGKMPGGPKPGGGPGLSTPGGHPKPPHRGGGEPRGGRQHHPPYHQQHHQGPPPGGPGGRSEEKISDSEGFKANLSLLRRPGEKTYTQRCRLFVGNLPADITEDEFKRLFAKYGEPGEVFINKGKGFGFIKLESRALAEIAKAELDDTPMRGRQLRVRFATHAAALSVRNLSPYVSNELLEEAFSQFGPIERAVVIVDDRGRSTGKGIVEFASKPAARKAFERCSEGVFLLTTTPRPVIVEPLEQLDDEDGLPEKLAQKNPMYQKERETPPRFAQHGTFEYEYSQRWKSLDEMEKQQREQVEKNMKDAKDKLESEMEDAYHEHQANLLRQDLMRRQEELRRMEELHNQEMQKRKEMQLRQEEERRRREEEMMIRQREMEEQMRRQREESYSRMGYMDPRERDMRMGGGGAMNMGDPYGSGGQKFPPLGGGGGIGYEANPGVPPATMSGSMMGSDMRTERFGQGGAGPVGGQGPRGMGPGTPAGYGRGREEYEGPNKKPRF", "values": [
      {"measurement": "production/secretion of PSA", "result": "blocks"},
      {"measurement": "androgen receptor activation of the MMTV promoter", "setting": "PC-3(AR)2 cells, 1 nM DHT", "result": "blocks"}
    ]}
  ]
}
